The text below walks through data of patent US20090275081A1.

Assay [1] concerns the target streptavidin agarose beads (ImmunoPure streptavidin coated beads, Pierce) (UniProt P22629). Kind of assay: pull-down on streptavidin agarose beads, Western blot. For orientation: Immunoblotting shows a protein as a band on a membrane.
Assay [2] has as its target carcinoembryonic antigen (CEA) on LS174T-CEA+ human colon carcinoma cells (human) (UniProt P06731). Kind of assay: flow cytometry on live LS174T-CEA+ cells, detected with Qdot655SA; percent positive staining.
Assay [3] deals with streptavidin agarose beads (ImmunoPure streptavidin coated beads, Pierce) (UniProt P22629). Kind of assay: pull-down of 3.5 ug purified protein on streptavidin agarose beads, Western blot with SA HRP.
The target in assay [4] is carcinoembryonic antigen (CEA) on LS174T-CEA+ human colon carcinoma cells (human) (UniProt P06731). The experiment in a line: flow cytometry on live LS174T-CEA+ cells, detected with Alexa Fluor 488 streptavidin; percent positive staining.

Sequence of UniProt P22629 (P22629 37-163 limits assumed): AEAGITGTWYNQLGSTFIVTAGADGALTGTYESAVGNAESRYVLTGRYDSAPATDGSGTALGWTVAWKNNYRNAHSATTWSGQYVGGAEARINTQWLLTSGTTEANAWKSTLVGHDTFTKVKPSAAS
Sequence of UniProt P06731 (P06731 35-702): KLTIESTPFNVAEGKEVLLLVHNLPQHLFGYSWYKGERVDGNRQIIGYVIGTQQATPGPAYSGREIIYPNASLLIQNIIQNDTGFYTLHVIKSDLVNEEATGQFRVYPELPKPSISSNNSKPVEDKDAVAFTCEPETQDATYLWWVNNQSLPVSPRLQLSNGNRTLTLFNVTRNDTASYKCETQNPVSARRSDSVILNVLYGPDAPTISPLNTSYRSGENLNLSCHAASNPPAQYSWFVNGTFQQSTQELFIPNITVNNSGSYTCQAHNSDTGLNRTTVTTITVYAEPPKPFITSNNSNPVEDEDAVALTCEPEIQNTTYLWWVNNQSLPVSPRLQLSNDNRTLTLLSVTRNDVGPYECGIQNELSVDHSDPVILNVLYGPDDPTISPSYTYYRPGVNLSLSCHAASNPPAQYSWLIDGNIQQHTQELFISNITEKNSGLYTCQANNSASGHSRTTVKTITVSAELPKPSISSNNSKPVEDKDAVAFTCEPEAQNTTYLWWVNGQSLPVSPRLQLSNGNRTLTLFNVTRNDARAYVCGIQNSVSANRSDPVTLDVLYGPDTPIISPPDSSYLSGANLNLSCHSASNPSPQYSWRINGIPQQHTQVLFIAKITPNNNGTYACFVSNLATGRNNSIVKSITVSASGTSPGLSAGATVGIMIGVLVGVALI

As for “Db-BP15-His (biotinylated anti-CEA T84.66 diabody with 15 aa biotin acceptor peptide followed by 6xHis tag)”, in assay [1], the percent unbound came out at 10%. The LS174T binding (%), Qdot streptavidin in assay [2] stood at 41%. In addition, the Binding with streptavidin agarose (%) in assay [3] was found to be 90%. The LS174T binding (%), Streptavidin Alexa in assay [4] was found to be 56%.

For the substance “Db-BD123 (biotinylated anti-CEA T84.66 diabody fused to the 123 aa biotin acceptor domain of P. shermanii)”, the LS174T binding (%), Qdot streptavidin in assay [2] amounted to 17.7%. The substance also registered a Binding with streptavidin agarose (%) in assay [3] of 95%. The LS174T binding (%), Streptavidin Alexa in assay [4] is 11.7%.
